From paper doi:10.1101/2024.05.21.594841 (bioRxiv, 2024)

How the values were obtained:
Assay in all cases: split reporter
Pdi1p = target: T1, Pdi1p (S. cerevisiae, UniProt P17967 29-522)
T1 sequence: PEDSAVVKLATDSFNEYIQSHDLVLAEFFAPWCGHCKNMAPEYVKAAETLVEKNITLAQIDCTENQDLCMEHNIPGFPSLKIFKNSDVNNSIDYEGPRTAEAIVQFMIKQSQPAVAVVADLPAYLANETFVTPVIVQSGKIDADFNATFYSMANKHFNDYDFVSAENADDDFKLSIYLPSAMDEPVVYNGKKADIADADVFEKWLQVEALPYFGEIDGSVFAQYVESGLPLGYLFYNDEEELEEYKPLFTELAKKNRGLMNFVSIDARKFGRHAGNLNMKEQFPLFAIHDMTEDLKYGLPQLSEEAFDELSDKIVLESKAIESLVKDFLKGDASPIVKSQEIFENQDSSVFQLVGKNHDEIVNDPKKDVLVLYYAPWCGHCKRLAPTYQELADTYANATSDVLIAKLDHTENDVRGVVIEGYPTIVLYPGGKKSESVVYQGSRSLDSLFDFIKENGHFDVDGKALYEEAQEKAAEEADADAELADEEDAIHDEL

Kar2p = Kar2p (S. cerevisiae, UniProt P16474 43-682)
Yos9p = target: T2, Yos9p (S. cerevisiae, UniProt Q99220 22-542)
T2 sequence: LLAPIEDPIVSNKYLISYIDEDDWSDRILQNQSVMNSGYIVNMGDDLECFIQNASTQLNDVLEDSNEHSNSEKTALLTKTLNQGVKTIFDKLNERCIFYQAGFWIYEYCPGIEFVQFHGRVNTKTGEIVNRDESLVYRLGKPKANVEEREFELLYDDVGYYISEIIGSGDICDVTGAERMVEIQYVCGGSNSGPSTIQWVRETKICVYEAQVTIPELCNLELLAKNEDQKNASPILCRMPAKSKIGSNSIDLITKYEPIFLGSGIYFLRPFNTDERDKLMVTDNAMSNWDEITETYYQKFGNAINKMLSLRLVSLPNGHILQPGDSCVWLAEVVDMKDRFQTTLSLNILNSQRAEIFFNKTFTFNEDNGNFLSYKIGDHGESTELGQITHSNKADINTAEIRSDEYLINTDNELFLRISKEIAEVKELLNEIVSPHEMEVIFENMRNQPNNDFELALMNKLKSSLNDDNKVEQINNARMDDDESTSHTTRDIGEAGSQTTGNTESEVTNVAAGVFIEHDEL

Qcr2p = target: T3, Qcr2p (S. cerevisiae, UniProt P07257 17-368)
T3 sequence: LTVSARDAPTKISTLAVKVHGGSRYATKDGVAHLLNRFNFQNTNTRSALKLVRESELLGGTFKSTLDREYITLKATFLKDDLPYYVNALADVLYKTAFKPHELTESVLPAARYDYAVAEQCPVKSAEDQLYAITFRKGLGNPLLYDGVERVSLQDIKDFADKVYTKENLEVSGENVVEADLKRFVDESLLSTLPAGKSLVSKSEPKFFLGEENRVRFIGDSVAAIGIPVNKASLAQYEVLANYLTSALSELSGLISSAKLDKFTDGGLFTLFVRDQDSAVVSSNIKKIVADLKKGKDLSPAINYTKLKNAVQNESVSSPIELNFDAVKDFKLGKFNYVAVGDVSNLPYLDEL

Mpd2p = target: T4, Mpd2p (S. cerevisiae, UniProt Q99316 23-277)
T4 sequence: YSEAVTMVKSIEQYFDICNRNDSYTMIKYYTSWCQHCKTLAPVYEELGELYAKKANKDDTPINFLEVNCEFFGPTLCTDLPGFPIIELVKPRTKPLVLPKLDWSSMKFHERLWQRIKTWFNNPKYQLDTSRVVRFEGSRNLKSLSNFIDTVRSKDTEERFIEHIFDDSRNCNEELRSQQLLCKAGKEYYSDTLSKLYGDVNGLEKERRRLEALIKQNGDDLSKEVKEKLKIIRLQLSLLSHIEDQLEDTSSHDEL

Scj1p = target: T5, Scj1p (S. cerevisiae, UniProt P25303 22-377)
T5 sequence: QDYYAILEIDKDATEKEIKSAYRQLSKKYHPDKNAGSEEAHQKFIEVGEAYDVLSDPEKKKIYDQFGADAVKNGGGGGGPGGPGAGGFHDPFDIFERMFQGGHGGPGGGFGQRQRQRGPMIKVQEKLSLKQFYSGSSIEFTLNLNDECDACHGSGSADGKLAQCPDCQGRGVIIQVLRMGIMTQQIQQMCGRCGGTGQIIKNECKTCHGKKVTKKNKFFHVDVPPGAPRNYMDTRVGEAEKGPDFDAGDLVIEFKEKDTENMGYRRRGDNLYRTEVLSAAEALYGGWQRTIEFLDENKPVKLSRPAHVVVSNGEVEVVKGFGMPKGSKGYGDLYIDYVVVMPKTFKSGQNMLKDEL

Sequence of Kar2p (P16474 43-682): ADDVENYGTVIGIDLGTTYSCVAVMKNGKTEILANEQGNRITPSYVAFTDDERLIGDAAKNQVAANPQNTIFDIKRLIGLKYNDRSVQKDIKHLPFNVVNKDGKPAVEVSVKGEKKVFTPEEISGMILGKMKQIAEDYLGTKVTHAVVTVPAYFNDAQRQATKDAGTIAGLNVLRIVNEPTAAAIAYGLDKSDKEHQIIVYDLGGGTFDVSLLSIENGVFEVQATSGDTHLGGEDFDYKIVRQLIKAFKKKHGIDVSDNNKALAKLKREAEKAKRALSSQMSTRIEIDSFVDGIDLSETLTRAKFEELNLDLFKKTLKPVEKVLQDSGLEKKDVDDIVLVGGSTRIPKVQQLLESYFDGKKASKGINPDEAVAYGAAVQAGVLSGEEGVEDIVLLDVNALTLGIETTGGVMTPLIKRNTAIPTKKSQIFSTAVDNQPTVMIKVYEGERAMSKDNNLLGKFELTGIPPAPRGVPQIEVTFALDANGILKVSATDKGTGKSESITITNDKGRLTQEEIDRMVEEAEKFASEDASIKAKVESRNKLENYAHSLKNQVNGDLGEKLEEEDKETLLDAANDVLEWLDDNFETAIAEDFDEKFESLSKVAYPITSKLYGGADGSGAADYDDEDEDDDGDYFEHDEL

B1: Lhs1p (natural protein)
chain: AVLGVDYGQQNIKAIVVSPQAPLELVLTPEAKRKEISGLSIKRLPGYGKDDPNGIERIYGSAVGSLATRFPQNTLLHLKPLLGKSLEDETTVTLYSKQHPGLEMVSTNRSTIAFLVDNVEYPLEELVAMNVQEIANRANSLLKDRDARTEDFVNKMSFTIPDFFDQHQRKALLDASSITTGIEETYLVSEGMSVAVNFVLKQRQFPPGEQQHYIVYDMGSGSIKASMFSILQPEDTTQPVTIEFEGYGYNPHLGGAKFTMDIGSLIENKFLETHPAIRTDELHANPKALAKINQAAEKAKLILSANSEASINIESLINDIDFRTSITRQEFEEFIADSLLDIVKPINDAVTKQFGGYGTNLPEINGVILAGGSSRIPIVQDQLIKLVSEEKVLRNVNADESAVNGVVMRGIKLSNSFKTKPLNVVDRSVNTYSFKLSNESELYDVFTRGSAYPNKTSILTNTTDSIPNNFTIDLFENGKLFETITVNSGAIKNSYSSDKCSSGVAYNITFDLSSDRLFSIQEVNCICQSENDIGNSKQIKNKGSRLAFTSEDVEIKRLSPSERSRLHEHIKLLDKQDKERFQFQENLNVLESNLYDARNLLMDDEVMQNGPKSQVEELSEMVKVYLDWLEDASFDTDPEDIVSRIREIGILKKKIELYMDSAKEPLNSQQFKGMLEEGHKLLQAIETHKNTVEEFLSQFETEFADTIDNVREEFKKIKQPAYVSKALSTWEETLTSFKNSISEIEKFLAKNLFGEDLREHLFEIKLQFDMYRTKLEEKLRLIKSGDESRLNEIKKLHLRNFRLQKRKEEKLKRKLEQEKSRNNNETESTVINSADDKTTIVNDKTTESNPSSEEDILHDEL
- normalized interacting score (Pdi1p): > 40%
- normalized interacting score (Kar2p): 93%
- normalized interacting score (Yos9p): > 40%
- normalized interacting score (Qcr2p): 22%
- normalized interacting score (Mpd2p): > 40%
- normalized interacting score (Scj1p): > 40%
